Values quoted from earlier work, collected in PMC11901361.

Molecular target: folate receptor alpha (Homo sapiens) (UniProt P15328)
Sequence (P15328 25-234): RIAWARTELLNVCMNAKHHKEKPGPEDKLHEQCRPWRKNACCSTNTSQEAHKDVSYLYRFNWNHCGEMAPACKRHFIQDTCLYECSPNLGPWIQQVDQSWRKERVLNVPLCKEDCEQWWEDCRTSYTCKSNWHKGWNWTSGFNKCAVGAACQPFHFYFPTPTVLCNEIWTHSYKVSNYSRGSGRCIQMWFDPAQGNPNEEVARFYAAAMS

## farletuzumab
  Kd: 2 µM
